# Article PMC2810336, “Mutational Analysis of Highly Conserved Residues in the Phage PhiC31 Integrase Reveals Key Amino Acids Necessary for the DNA Recombination”
# B1: attB 41 bp (dsDNA)
# DNA 1: CGGGTGCCAGGGCGTGCCCTTGGGCTCCCCGGGCGCGTACT
# DNA 2: AGTACGCGCCCGGGGAGCCCAAGGGCACGCCCTGGCACCCG
# Tests used:
# phiC31 integrase WT = biological target: T1, phiC31 integrase WT (Streptomyces phage phiC31, UniProt Q38194 1-613); test: EMSA; complexes I, II, III; reference; competed by excess cold attB; 50 ng/ul Poly (competitor (so in the source)), 0.05% NP-40, 50 mM KCl, 5 mM MgCl2, 10 mM EDTA, 20 ul, 0.4 ng (16 fmol) probe; 30 min at room temperature (Methods) or 30 C; pH not stated; synapsis 2 h at 30 C; details: protein: recombinant; tags: C-terminal His (pET22b); chain copies: 2; label: biotin, double-strand end-labeled; blunt
# T1 sequence: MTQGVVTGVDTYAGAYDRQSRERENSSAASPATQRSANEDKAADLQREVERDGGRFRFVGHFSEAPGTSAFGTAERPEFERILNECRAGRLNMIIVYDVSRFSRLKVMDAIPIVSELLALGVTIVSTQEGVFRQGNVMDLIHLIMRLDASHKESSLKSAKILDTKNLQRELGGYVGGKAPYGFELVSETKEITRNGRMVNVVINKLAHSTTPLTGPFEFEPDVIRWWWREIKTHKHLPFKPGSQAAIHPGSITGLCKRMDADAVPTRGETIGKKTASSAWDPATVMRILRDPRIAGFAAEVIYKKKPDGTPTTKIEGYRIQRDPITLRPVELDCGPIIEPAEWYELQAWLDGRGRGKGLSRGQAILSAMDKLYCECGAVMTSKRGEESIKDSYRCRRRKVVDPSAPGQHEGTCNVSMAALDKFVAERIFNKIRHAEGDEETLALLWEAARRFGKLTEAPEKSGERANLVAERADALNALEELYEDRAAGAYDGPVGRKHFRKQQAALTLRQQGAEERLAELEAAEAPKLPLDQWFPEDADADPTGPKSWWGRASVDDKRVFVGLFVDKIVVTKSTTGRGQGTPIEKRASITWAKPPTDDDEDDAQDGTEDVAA
# phiC31 integrase V571A = biological target: T2, phiC31 integrase V571A (Streptomyces phage phiC31, UniProt Q38194 1-613, V571A); test: EMSA; 400 nM protein; 50 ng/ul Poly (competitor (so in the source)), 0.05% NP-40, 50 mM KCl, 5 mM MgCl2, 10 mM EDTA, 20 ul, 0.4 ng (16 fmol) probe; 30 min at room temperature (Methods) or 30 C; pH not stated; synapsis 2 h at 30 C; details: protein: recombinant; tags: C-terminal His; chain copies: 2; label: biotin, double-strand end-labeled; blunt
# T2 sequence: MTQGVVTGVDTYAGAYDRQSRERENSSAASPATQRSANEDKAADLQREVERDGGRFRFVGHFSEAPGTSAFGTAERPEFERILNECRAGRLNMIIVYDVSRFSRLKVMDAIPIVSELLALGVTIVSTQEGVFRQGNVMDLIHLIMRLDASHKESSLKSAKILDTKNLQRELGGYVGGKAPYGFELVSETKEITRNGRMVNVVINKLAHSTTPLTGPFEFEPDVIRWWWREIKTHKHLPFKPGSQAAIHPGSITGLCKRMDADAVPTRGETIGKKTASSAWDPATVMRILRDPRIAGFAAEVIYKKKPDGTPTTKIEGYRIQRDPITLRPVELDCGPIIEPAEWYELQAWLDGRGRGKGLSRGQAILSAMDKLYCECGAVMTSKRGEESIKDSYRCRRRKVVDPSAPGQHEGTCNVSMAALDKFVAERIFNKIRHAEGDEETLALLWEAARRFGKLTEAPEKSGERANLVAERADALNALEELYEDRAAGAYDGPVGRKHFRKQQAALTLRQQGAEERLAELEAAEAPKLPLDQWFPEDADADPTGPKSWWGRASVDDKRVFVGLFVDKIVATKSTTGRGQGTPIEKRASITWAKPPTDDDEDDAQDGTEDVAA
# [1] = biological target: T3, phiC31 integrase C376A/G377A (Streptomyces phage phiC31, UniProt Q38194 1-613, C376A;G377A); test: as above; details: protein: recombinant; tags: C-terminal His; chain copies: 2; label: biotin, double-strand end-labeled; blunt
# T3 sequence: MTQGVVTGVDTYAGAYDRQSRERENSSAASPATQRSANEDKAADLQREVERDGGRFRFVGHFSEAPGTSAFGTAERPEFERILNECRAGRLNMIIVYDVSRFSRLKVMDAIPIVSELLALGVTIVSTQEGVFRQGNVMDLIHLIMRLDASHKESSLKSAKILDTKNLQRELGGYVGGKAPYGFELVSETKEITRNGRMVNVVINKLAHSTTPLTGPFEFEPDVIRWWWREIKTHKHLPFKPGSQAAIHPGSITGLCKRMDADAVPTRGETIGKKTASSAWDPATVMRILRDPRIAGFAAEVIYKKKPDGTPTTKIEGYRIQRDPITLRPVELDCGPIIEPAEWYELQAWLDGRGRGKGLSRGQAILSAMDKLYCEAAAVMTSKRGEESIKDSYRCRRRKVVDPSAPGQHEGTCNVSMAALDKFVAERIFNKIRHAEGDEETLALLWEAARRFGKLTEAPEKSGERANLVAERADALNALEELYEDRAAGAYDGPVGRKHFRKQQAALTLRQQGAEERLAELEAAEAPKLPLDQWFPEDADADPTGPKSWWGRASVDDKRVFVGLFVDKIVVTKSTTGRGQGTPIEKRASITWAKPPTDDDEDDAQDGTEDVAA
binder,measurement,setting,value
B1,binding signal,phiC31 integrase WT,100 % of WT
same,binding signal,phiC31 integrase V571A,15.6 ± 1.7 % of WT
same,binding signal,[1],0 % of WT
